We go through two molecules from doi:10.1101/2023.09.15.558033.

Experiment [1] deals with Hsp60 C-terminal deletion mutant Δ522 (terminal 26 residues removed) (human). Kind of experiment: cryo-EM structure.
Experiment [2] has as its target Hsp60 C-terminal deletion mutant Δ532 (terminal 16 residues removed) (human).

Take “Hsp60 C-terminal deletion mutant Δ522 (terminal 26 residues removed) (domain or fragment)”: the stoichiometry N (in general, a count of units in the complex or per binding partner) in experiment [1] stood at 14.

B1: human malate dehydrogenase (hMDH), acid-denatured (enzyme)
chain: AKVAVLGASGGIGQPLSLLLKNSPLVSRLTLYDIAHTPGVAADLSHIETKAAVKGYLGPEQLPDCLKGCDVVVIPAGVPRKPGMTRDDLFNTNATIVATLTAACAQHCPEAMICVIANPVNSTIPITAEVFKKHGVYNPNKIFGVTTLDIVRANTFVAELKGLDPARVNVPVIGGHAGKTIIPLISQCTPKVDFPQDQLTALTGRIQEAGTEVVKAKAGAGSATLSMAYAGARFVFSLVDAMNGKEGVVECSFVKSQETECTYFSTPLLLGKKGIEKNLGIGKVSSFEEKMISDAIPELKASIKKGEDFVKTLK
In experiment [2], B1 returned a refolding of denatured hMDH (hMDH activity), loss against wild-type Hsp60 of 27%.
